Assay results from article PMC8324832.

Target: Right-Handed Coiled Coil-Nanotube (RHCC-NT) (Staphylothermus marinus)
Assay: crystal structure; RHCC-NT incubated with o-carborane at 50 °C for 1 week, 10 mg/mL in 10 mM TRIS pH 7.5, 154 mM NaCl; vapour diffusion; data at 100 K; 2.2 Å; molecular replacement with PDB 1YBK

stoichiometry N: 4
Substance: Right-Handed Coiled Coil-Nanotube (RHCC-NT) (domain or fragment)
